Source: patent publication US20210301005A1 (Genentech, published 2021)
Read-outs that look alike come from different tables or passages of the source.

What was measured:
[1] = biological target: T1, human TGFβ2, mature receptor-binding domain (human, UniProt P09858 303-414 (pig entry), The mature TGFβ2 is a disulfide-linked homodimer of this 112-residue chain. The 4A11 epitope spans both monomers (p-1207).); assay: BIAcore T200
T1 construct: Peprotech; also called TGFb2
T1 sequence: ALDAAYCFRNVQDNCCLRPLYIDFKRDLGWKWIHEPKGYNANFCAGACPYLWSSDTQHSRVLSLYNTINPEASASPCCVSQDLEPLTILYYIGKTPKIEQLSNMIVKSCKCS
Protocol: (§1) For binding affinity determinations of all humanized 2A10 antibodies, Surface Plasmon Resonance (SPR) measurement with a BIAcore™-T200 instrument was used. Briefly, series S CM5 biosensor chip with protein A was first applied to capture each humanized 2A10 variant to achieve approximately 100 response units (RU) on each flow cell, following by injection of 3-fold serial dilutions of human TGFβ1, TGFβ2 or TGFβ3 (0.02 nM to 5 nM) in HBS-EP buffer (0.01M HEPES pH 7.4, 0.15M NaCl, 3 mM EDTA and 0.05% v/v surfactant P20) at 25° C. with a flow rate of 50 μl/min for kinetics measurement. Association rates (ko.) and dissociation rates (koff) were calculated using a simple one-to-one Langmuir binding model (BIAcore T200 evaluation software version 2.0) to determine the equilibrium dissociation constant (KD), which was calculated as the ratio koff/kₒₙ.
(§2) Binding affinity determinations of all humanized 4A11 antibodies were performed using SPR measurement with a BIAcore™-T200 instrument, as described above in Example 6 ([…]).

[2] = biological target: T2, human TGFβ3, mature dimeric form (human, UniProt P10600 301-412); assay: BIAcore T200
T2 construct: Peprotech, expressed in E. coli; also called TGFb3
T2 sequence: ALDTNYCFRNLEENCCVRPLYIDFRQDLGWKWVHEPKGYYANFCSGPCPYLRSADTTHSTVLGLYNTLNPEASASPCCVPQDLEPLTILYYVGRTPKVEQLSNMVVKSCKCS
Protocol: as §1, §2

[3] = biological target: T3, human TGFβ1, mature receptor-binding domain (human, UniProt P01137 279-390); assay: cell-based or functional assay
T3 sequence (P01137 279-390 limits assumed): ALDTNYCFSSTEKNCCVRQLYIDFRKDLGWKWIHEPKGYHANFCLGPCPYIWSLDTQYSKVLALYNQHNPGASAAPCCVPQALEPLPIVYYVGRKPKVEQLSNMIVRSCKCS

[4] = biological target: T1, human TGFβ2, mature receptor-binding …; assay: cell-based or functional assay
[5] = biological target: T2, human TGFβ3, mature dimeric form; assay: cell-based or functional assay
[6] = biological target: T1, human TGFβ2, mature receptor-binding …; assay: BIAcore T200; remark: listed apart in the source
Protocol: as §1, §2

[7] = biological target: T2, human TGFβ3, mature dimeric form; assay: BIAcore T200; remark: listed apart in the source
Protocol: as §1, §2

[8] = biological target: T3, human TGFβ1, mature receptor-binding …; assay: cell-based or functional assay; remark: listed apart in the source
[9] = biological target: T1, human TGFβ2, mature receptor-binding …; assay: cell-based or functional assay; remark: listed apart in the source
[10] = biological target: T2, human TGFβ3, mature dimeric form; assay: cell-based or functional assay; remark: listed apart in the source

B1: h4A11.v7.16 (antibody, human IgG1, kappa, N297G, V domains shown)
VH: EVQLQESGPGLVKPSETLSLTCTVTGFSLSSYTVNWIRQPAGKGLEWIGYISYGGSAYYASWANGRVTISKDTSKNQFSLKLSSVTAADTAVYFCARHMQVGGAPTGSMAAFDPWGQGTLVTVSS
VL: EIVLTQSPGTLSLSPGERATLSCQSSQSVYNNNYLSWFQQKPGQAPRLLIYGASTLTSGIPDRFSGSGSGTDFTLTISRLEPEDFAVYYCAGGYSGSSDKYAFGGGTKVEIKR
Kd [1]: 0.0049 nM
Kd [2]: 0.0066 nM
HEKBlue TGFβ blocking IC50 [3]: > 200 nM
HEKBlue TGFβ blocking IC50 [4]: 0.09 nM
HEKBlue TGFβ blocking IC50 [5]: 0.13 nM

B2: h4A11.v8 (antibody, V domains shown)
VH: EQQLQESGPGLVKPSETLSLTCTVTGFSLSSYTVNWVRQPAGKGLEWIGYISYGGSAYYASWANGRFTISKDSSKNQVSLKLSSVTAADTAVYFCARHMQVGGAPTGSMAAFDPWGPGTLVTVSS
VL: DAVLTQTPLSSPVTLGQPASISCQSSQSVYNNNYLSWFQQRPGQPPRLLIYGASTLTSGVPDRFSGSGAGTDFTLKISRVEAEDVGVYYCAGGYSGSSDKYAFGGGTKVEIK
Kd [6]: 0.0082 nM
Kd [7]: 0.0141 nM
HEKBlue TGFβ blocking IC50 [8]: > 200 nM
HEKBlue TGFβ blocking IC50 [9]: > 200 nM
HEKBlue TGFβ blocking IC50 [10]: 0.66 nM

B3: h4A11.v7.19 (antibody, human IgG1, kappa, N297G, V domains shown)
VH: EVQLQESGPGLVKPSETLSLTCTVTGFSLSSYTVNWIRQPAGKGLEWIGYISYGGSAYYASWANGRVTISKDTSQVSLKLSSVTAADTAVYFCARHMQVGGAPTGSMAAFDPWGQGTLVTVSS
VL: EIVLTQSPGTLSLSPGERATLSCQSSQSVYNNNYLSWFQQKPGQAPRLLIYGASTLTSGIPDRFSGSGSGTDFTLTISRLEPEDFAVYYCAGGYSGSSDKYAFGGGTKVEIKR
Kd [1]: 0.001 nM
Kd [2]: ≤ 0.0013 nM
HEKBlue TGFβ blocking IC50 [3]: > 200 nM
HEKBlue TGFβ blocking IC50 [4]: 0.05 nM
HEKBlue TGFβ blocking IC50 [5]: 0.09 nM

B4: h4A11.v7.17 (antibody, human IgG1, kappa, N297G, V domains shown)
VH: EVQLQESGPGLVKPSETLSLTCTVTGFSLSSYTVNWIRQPAGKGLEWIGYISYGGSAYYASWANGRVTISKDTSKNQVSLKLSSVTAADTAVYYCARHMQVGGAPTGSMAAFDPWGQGTLVTVSS
VL: EIVLTQSPGTLSLSPGERATLSCQSSQSVYNNNYLSWFQQKPGQAPRLLIYGASTLTSGIPDRFSGSGSGTDFTLTISRLEPEDFAVYYCAGGYSGSSDKYAFGGGTKVEIKR
Kd [1]: 0.0013 nM
Kd [2]: 0.0032 nM
HEKBlue TGFβ blocking IC50 [3]: > 200 nM
HEKBlue TGFβ blocking IC50 [4]: 0.16 nM
HEKBlue TGFβ blocking IC50 [5]: 0.17 nM

B5: h4A11.v7.18 (antibody, human IgG1, kappa, N297G, V domains shown)
VH: EVQLQESGPGLVKPSETLSLTCTVTGFSLSSYTVNWIRQPAGKGLEWIGYISYGGSAYYASWANGRVTISKDTSKNQVSLKLSSVTAADTAVYFCARHMQVGGAPTGSMAAFDPWGQGTLVTVSS
VL: EIVLTQSPGTLSLSPGERATLSCQSSQSVYNNNYLSWFQQKPGQAPRLLIYGASTLTSGIPDRFSGSGSGTDFTLTISRLEPEDFAVYYCAGGYSGSSDKYAFGGGTKVEIKR
Kd [1]: 0.0011 nM
Kd [2]: 0.0046 nM
HEKBlue TGFβ blocking IC50 [3]: > 200 nM
HEKBlue TGFβ blocking IC50 [4]: 0.09 nM
HEKBlue TGFβ blocking IC50 [5]: 0.11 nM
